The target in test [1] is HLA-A2.1 (HLA-A*0201) on T2 cells (human). Briefly: T2 cell HLA-A2.1 stabilisation, flow cytometry.
Protocol: Peptide was mixed with the cells by repipeting before distributing to the plate (alternatively peptide can be added to individual wells), and the plate was rocked gently for 2 minutes. Incubation was in a 5% CO₂ incubator at 37° C. The next day the unbound peptide was removed by washing twice with serum free RPMI medium and a saturating amount of anti-class I HLA monoclonal antibody, fluorescein isothiocyanate (FITC)-conjugated anti-HLA A2, A28 (One Lambda, Canoga Park, Calif.) was added. After incubation for 30 minutes at 4° C., cells were washed 3 times with PBS supplemented with 0.5% BSA, 0.05% (w/v) sodium azide, pH 7.4-7.6 (staining buffer). (Alternatively W6/32 (Sigma) can be used as the anti-class I HLA monoclonal antibody the cells washed with staining buffer and then incubated with fluorescein isothiocyanate (FITC)-conjugated goat F(ab′) antimouse-IgG (Sigma) for 30 min at 4° C. and washed 3 times as before.) The cells were resuspended in 0.5 ml staining buffer. […] If flow cytometry is not to be performed immediately the cells can be fixed by adding a quarter volume of 2% paraformaldehyde and storing in the dark at 4° C.
Test [2] has the same target. Briefly: T2 cell HLA-A2 stabilisation, flow cytometry.
Test [3] shares this target. Briefly: T2 cell HLA-A*0201 stabilisation, flow cytometry.

Results on 4 molecules are retold here after patent US20030220239A1 (published 2003).

B1: SSX-2 41-49, KASEKIFYV (peptide)
peptide: KASEKIFYV
For B1, the binding result in test [1] is given as “binds”.

B2: tyrosinase208-216, LPWHRLFLL (peptide)
peptide: LPWHRLFLL
notes: also called Tyr 208-216
On to B2, for which, in test [2], the binding result was “binds”.

B3: PSMA663-671 (SEQ ID NO. 66) (peptide)
peptide: MMNDQLMFL
With B3, in test [3], the binding result is reported as “binds”.

B4: tyrosinase207-215, FLPWHRLFL (peptide)
peptide: FLPWHRLFL
notes: also called Tyr 207-215
Turning to B4, the binding result in test [2] is listed as “binds”.
